Here are results for 76 sequences from the supplement of paper PMC7877785.

± gives the uncertainty stated by the source.

The data set is described as follows: self-splicing fitness, log relative to wild type (ln ratio); higher = more splicing; Tetrahymena group I intron in knt gene, E. coli kanamycin selection, DiMSum; sequences stand for … in CUCUCU…GGAGGGAAAAGUUAUCAGGCAUGCACCUGGUAGCUAGUCUUUAAACCAAUAGAUUGCAUCGGUUUAAAAGGCAAGACCGUCAAAUUGCGGGAAAGGGGUCAACAGCCGUUCAGUACCAAGUCUCAGGGGAAACUUUGAGAUGGCCUUGCAAAGGGUAUGGUAAUAAGCUGACGGACAUGGUCCUAACCACGCAGCCAAGUCCUAAGUCAACAGAUCUUCUGUUGAUAUGGAUGCAGUUCACAGACUAAAUGUCGGUCGGGGAAGAUGUAUUCUUCUCAUAAGAUAUAGUCGGACCUCUCCUUAAUGGGAGCUAGCGGAUGAAGUGAUGCAACACUGGAGCCGCUGGGAACUAAUUUGUAUGCGAAAGUAUAUUGAUUAGUUUUGGAGUACUCGUGGUCG
In a few lines:
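Six replicate transformations of E. coli BL21(DE3) with a pET-22b(+) library were grown overnight at 37°C or 30°C. The library randomised all eight P1ex-region intron nucleotides, the intron lying in the knt kanamycin-resistance gene, and plates were LB agar with or without 25 μg/mL kanamycin plus 100 μg/mL carbenicillin, 50 μM IPTG and 0.2% rhamnose. Pooled colonies were amplicon-sequenced on an Illumina HiSeq 2500, and fitness is the DiMSum error-weighted combination of wild-type-normalised replicate fold changes, kanamycin versus none.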

Take UGGAAGCAAUAUUACGACAU: the “self-splicing fitness (ln)” value (30 °C) was -2.825 ± 0.021 and the “self-splicing fitness (ln)” value (37 °C) was -1.92 ± 0.035. In the same order, the values of UAAGAGCAAUAUUACGACGC are -2.96 ± 0.32 and -2.07 ± 0.43. In the same order, the values of GACGAGCAAUAUUACGAUUG are -4.17 ± 0.27 and -1.09 ± 0.13. In the same order, the values of UAUGAGCAAUAUUACGAUUG are -1.94 ± 0.17 and -1.11 ± 0.2. AUGUAGCAAUAUUACGUGCC: the “self-splicing fitness (ln)” value is, setting by setting: (30 °C) -1.65 ± 0.22; (37 °C) -0.677 ± 0.2. In the same order, the values of CGCGAGCAAUAUUACGGAGA are -2.25 ± 0.23 and -2.3 ± 0.33.

Take AUUCAGCAAUAUUACGAGCA: the “self-splicing fitness (ln)” value (30 °C) is -0.457 ± 0.16 and the “self-splicing fitness (ln)” value (37 °C) is -0.783 ± 0.2. In the same order, the values of UAACAGCAAUAUUACGCGGC are -3.99 ± 0.28 and -2.65 ± 0.35. In the same order, the values of CACUAGCAAUAUUACGGUGA are -3.47 ± 0.21 and -2.22 ± 0.18.

As to UCGUAGCAAUAUUACGGUAA, the “self-splicing fitness (ln)” value was -2.67 ± 0.35 (30 °C) and 0.253 ± 0.19 (37 °C). In the case of AACUAGCAAUAUUACGCUCA, the “self-splicing fitness (ln)” value runs as follows: (30 °C) -0.21 ± 0.1; (37 °C) 0.239 ± 0.14. GUAUAGCAAUAUUACGCCUU: the “self-splicing fitness (ln)” value by setting is: (30 °C) -2.11 ± 0.29; (37 °C) -0.499 ± 0.24.

For the sequence GCGCAGCAAUAUUACGGUCC, the “self-splicing fitness (ln)” value was -1.22 ± 0.12 (30 °C) and 0.23 ± 0.17 (37 °C). On the same counts, the results for GUGCAGCAAUAUUACGGGUC are -2.38 ± 0.13 and -0.803 ± 0.14. In the same order, the values of UAAUAGCAAUAUUACGGGCG are -1.45 ± 0.1 and -0.567 ± 0.13. In the same order, the values of CGUAAGCAAUAUUACGUGCG are -2.95 ± 0.17 and -2.17 ± 0.16. Take UGACAGCAAUAUUACGGAAA: the “self-splicing fitness (ln)” value (30 °C) was -2.03 ± 0.12 and the “self-splicing fitness (ln)” value (37 °C) is -1.75 ± 0.14. As for GCGAAGCAAUAUUACGCGAU, the “self-splicing fitness (ln)” value was -2.49 ± 0.44 (30 °C) and -1.74 ± 0.47 (37 °C). ACAAAGCAAUAUUACGAAGG: the “self-splicing fitness (ln)” value (30 °C) was -2.52 ± 0.087 and the “self-splicing fitness (ln)” value (37 °C) is -1.75 ± 0.12. Turning to CCGGAGCAAUAUUACGAAUU, the “self-splicing fitness (ln)” value (37 °C) was -3.26 ± 0.3. In the case of UAGCAGCAAUAUUACGUGUU, the “self-splicing fitness (ln)” value (30 °C) is -3.4 ± 0.1 and the “self-splicing fitness (ln)” value (37 °C) is -2.86 ± 0.15. Regarding AGUAAGCAAUAUUACGAUUA, the “self-splicing fitness (ln)” value runs as follows: (30 °C) -0.948 ± 0.082; (37 °C) 0.25 ± 0.092. On the same counts, the results for AGUAAGCAAUAUUACGCACA are -0.655 ± 0.082 and -0.356 ± 0.091. On the same counts, the results for AGCAAGCAAUAUUACGUUGC are -3.69 ± 0.19 and -1.08 ± 0.16. For the sequence GUCAAGCAAUAUUACGCCUG, the “self-splicing fitness (ln)” value by setting is: (30 °C) -3.6 ± 0.25; (37 °C) -2.6 ± 0.22. As to CAUCAGCAAUAUUACGCAUC, the “self-splicing fitness (ln)” value by setting is: (30 °C) -1.34 ± 0.13; (37 °C) -1.02 ± 0.15. In the same order, the values of UCUCAGCAAUAUUACGGGAA are -2.28 ± 0.17 and -0.762 ± 0.11. On the same counts, the results for ACAAAGCAAUAUUACGUUGC are -3.26 ± 0.12 and -2.57 ± 0.16. On the same counts, the results for GAGCAGCAAUAUUACGUAUU are -2.62 ± 0.066 and -1.32 ± 0.075. For CGGAAGCAAUAUUACGCUCU, the “self-splicing fitness (ln)” value (37 °C) is -1.81 ± 0.44. On to CCGGAGCAAUAUUACGCUCA, for which the “self-splicing fitness (ln)” value by setting is: (30 °C) -3.12 ± 0.3; (37 °C) -2.71 ± 0.41. Regarding CGACAGCAAUAUUACGCGGC, the “self-splicing fitness (ln)” value by setting is: (30 °C) -3.55 ± 0.16; (37 °C) -2.96 ± 0.26. In the same order, the values of UUCAAGCAAUAUUACGUUCA are -0.938 ± 0.077 and -0.12 ± 0.077. In the same order, the values of AAUUAGCAAUAUUACGGUAU are -1.29 ± 0.097 and -0.598 ± 0.11.

Turning to UUUAAGCAAUAUUACGAAGU, the “self-splicing fitness (ln)” value (37 °C) is -1.62 ± 0.45. As for UGGGAGCAAUAUUACGUCUU, the “self-splicing fitness (ln)” value (30 °C) is -3.74 ± 0.35 and the “self-splicing fitness (ln)” value (37 °C) is -2.54 ± 0.3.

With UAAGAGCAAUAUUACGAUGC, the “self-splicing fitness (ln)” value is -3.73 ± 0.42 (30 °C) and -2.34 ± 0.33 (37 °C).

Turning to UAAGAGCAAUAUUACGACUA, the “self-splicing fitness (ln)” value is, setting by setting: (30 °C) -0.436 ± 0.11; (37 °C) 0.314 ± 0.11. On the same counts, the results for GCGAAGCAAUAUUACGAUUC are -1.46 ± 0.097 and -0.598 ± 0.13.

On to CAGUAGCAAUAUUACGCAAG, for which the “self-splicing fitness (ln)” value runs as follows: (30 °C) -1.07 ± 0.12; (37 °C) -0.553 ± 0.17. On the same counts, the results for GGGUAGCAAUAUUACGUGAC are -2.07 ± 0.17 and -2.27 ± 0.26. Turning to GGGUAGCAAUAUUACGAACG, the “self-splicing fitness (ln)” value by setting is: (30 °C) -0.91 ± 0.08; (37 °C) -0.292 ± 0.1. On the same counts, the results for UGGCAGCAAUAUUACGUCGA are -0.694 ± 0.04 and 0.401 ± 0.058. On the same counts, the results for CGAUAGCAAUAUUACGCGCG are -2.92 ± 0.15 and -1.59 ± 0.14.

With AUGUAGCAAUAUUACGUAAC, the “self-splicing fitness (ln)” value by setting is: (30 °C) -2.96 ± 0.17; (37 °C) -1.54 ± 0.16. With AUUGAGCAAUAUUACGACAA, the “self-splicing fitness (ln)” value (30 °C) is -2.28 ± 0.29 and the “self-splicing fitness (ln)” value (37 °C) was -1.31 ± 0.23. In the same order, the values of AGAUAGCAAUAUUACGACUC are -0.641 ± 0.12 and -0.0202 ± 0.21. On the same counts, the results for AAGGAGCAAUAUUACGGGAG are -4.8 ± 0.39 and -2.24 ± 0.3. CGCGAGCAAUAUUACGGCAA: the “self-splicing fitness (ln)” value by setting is: (30 °C) -4.21 ± 0.46; (37 °C) -1.97 ± 0.28.

As for UGGAAGCAAUAUUACGCACG, the “self-splicing fitness (ln)” value runs as follows: (30 °C) -0.874 ± 0.12; (37 °C) 0.34 ± 0.15. In the same order, the values of GGGGAGCAAUAUUACGAUCG are -1.44 ± 0.2 and -0.888 ± 0.3. On the same counts, the results for GACAAGCAAUAUUACGUUCA are -1.21 ± 0.074 and -0.263 ± 0.072. Consider CCGGAGCAAUAUUACGGAUU, for which the “self-splicing fitness (ln)” value (37 °C) is -1.82 ± 0.2.

As to GCACAGCAAUAUUACGGACA, the “self-splicing fitness (ln)” value is, setting by setting: (30 °C) -1.02 ± 0.1; (37 °C) -0.584 ± 0.11. In the same order, the values of UCCUAGCAAUAUUACGUAAC are -3.53 ± 0.24 and -2.07 ± 0.27. Consider UUUAAGCAAUAUUACGCAUU, for which the “self-splicing fitness (ln)” value (30 °C) was -2.05 ± 0.17 and the “self-splicing fitness (ln)” value (37 °C) was -2.63 ± 0.24. In the same order, the values of CUGCAGCAAUAUUACGGAUU are -3.49 ± 0.18 and -1.8 ± 0.16.

Regarding UCCAAGCAAUAUUACGGACA, the “self-splicing fitness (ln)” value is, setting by setting: (30 °C) -2.37 ± 0.11; (37 °C) -0.757 ± 0.084. Regarding GACAAGCAAUAUUACGUCUG, the “self-splicing fitness (ln)” value by setting is: (30 °C) -3.26 ± 0.16; (37 °C) -2.89 ± 0.15.

Turning to ACCAAGCAAUAUUACGAGCG, the “self-splicing fitness (ln)” value by setting is: (30 °C) -0.886 ± 0.062; (37 °C) -1.31 ± 0.081. In the same order, the values of GACUAGCAAUAUUACGUUGC are -2.56 ± 0.12 and -2.5 ± 0.2.

With CCGUAGCAAUAUUACGGUUG, the “self-splicing fitness (ln)” value by setting is: (30 °C) -3.89 ± 0.24; (37 °C) -1.73 ± 0.19.

For GCUUAGCAAUAUUACGUAUC, the “self-splicing fitness (ln)” value is -1.32 ± 0.083 (30 °C) and 0.415 ± 0.093 (37 °C). In the same order, the values of AGCCAGCAAUAUUACGACAU are -1.512 ± 0.012 and -0.664 ± 0.032. In the same order, the values of UGUCAGCAAUAUUACGCGGC are -3.06 ± 0.24 and -2.09 ± 0.31.

For the sequence UGGUAGCAAUAUUACGGCGG, the “self-splicing fitness (ln)” value was -0.708 ± 0.082 (30 °C) and -0.0108 ± 0.1 (37 °C). On the same counts, the results for ACCGAGCAAUAUUACGUCGG are -4.23 ± 0.39 and -3.13 ± 0.35. On the same counts, the results for CUCAAGCAAUAUUACGGGAG are -2.91 ± 0.17 and -1.77 ± 0.18. On the same counts, the results for UAUAAGCAAUAUUACGUUUG are -1.84 ± 0.11 and -1.61 ± 0.14.

As to GGCAAGCAAUAUUACGAUGC, the “self-splicing fitness (ln)” value (30 °C) is -2.36 ± 0.11 and the “self-splicing fitness (ln)” value (37 °C) was -1.02 ± 0.12. On the same counts, the results for AAUAAGCAAUAUUACGAUCU are 0.041 ± 0.069 and 0.493 ± 0.087. In the same order, the values of CUGGAGCAAUAUUACGGAAC are -3.5 ± 0.33 and -2.64 ± 0.3. In the same order, the values of GGCGAGCAAUAUUACGGAGU are -3.06 ± 0.4 and -1.68 ± 0.4. With GAAGAGCAAUAUUACGCUGC, the “self-splicing fitness (ln)” value (37 °C) was -2.63 ± 0.48. In the case of AUAGAGCAAUAUUACGGCGG, the “self-splicing fitness (ln)” value is -1.71 ± 0.1 (30 °C) and -1.32 ± 0.13 (37 °C). Take GUUUAGCAAUAUUACGCUUA: the “self-splicing fitness (ln)” value runs as follows: (30 °C) -1.24 ± 0.15; (37 °C) -0.129 ± 0.12.
